# Laboratory results reported in the supplement of paper PMC12042874.
# ± gives the uncertainty stated by the source.
# Assay: amyloid nucleation score (Sup35N fusion, yeast selection) (log enrichment); library NNK2; higher = more nucleation; inactive = no reads after selection
# In short: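 Psi-negative yeast expressed Sup35N fused to peptides of 20 random codons. They were induced 24 hours with 100 μM copper sulfate, grown 7 days at 30°C without adenine and uracil, and their plasmid inserts from input and output were Illumina-sequenced. The nucleation score is the DiMSum log enrichment of output over input reads, centred on the mode score of non-aggregating sequences. Sequences with under 100 input reads were excluded.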
row,Substance,amyloid nucleation score
1,PAYLDPCTSFSVILAMVLLW,0.697 ± 0.55
2,PCERPFERFLVLNRFSDSST,0.183 ± 0.62
3,PCIFFMRFYFRT,-0.078 ± 0.65
4,PCIRPLDKVCLIFFTGIFLW,-1.47 ± 0.78
5,PCQCKV,4.16 ± 0.072
6,PCRYSSKSNYTW,-0.507 ± 0.76
7,PDFKNLSYWLSVDTMPSRWV,inactive
8,PDRSTFRVYSLHWTFCEHRC,3.74 ± 0.1
9,PDSGVSDESHLRCLPGVPRI,0.066 ± 0.28
10,PEDLLGRWIIFSYVFTIYSI,inactive
11,PEFGTDIPKSRRRKEGCRGG,0.717 ± 0.23
12,PEILMSDGIRKLCSVYVFLR,inactive
13,PERCYQTG,-0.251 ± 0.76
14,PFGHFQLLINSKTGMRSVMT,-0.463 ± 0.37
15,PFGKPVYLIFPPGMLVIFRA,-0.603 ± 1.1
16,PFRGYFGVLSYAVFGEAGPV,4.4 ± 0.067
17,PFSNMLASAFNFILITCSDL,inactive
18,PFSRLNPRDPLWVEMFVCWQ,3.48 ± 0.066
19,PFSWH,1.38 ± 0.14
20,PFTSYML,5.63 ± 0.065
21,PFYVSRRVCKYAF,-0.301 ± 0.28
22,PGEECGGLSITIEWGTSSS,0.211 ± 0.5
23,PGHLLRILVFSNNYAYQRDI,-0.647 ± 0.42
24,PGILDNRLGKQGAGLDLRWH,1.17 ± 0.24
25,PGLRGGA,-0.398 ± 0.76

row,Substance,amyloid nucleation score
1,PGLTVYFGTVRMKVHCWSYR,9.779 ± 0.029
2,PGNNMLFMWYHWGLGCNFLM,-0.059 ± 0.79
3,PGSKPPWVSYGNPSTMAIGM,-0.472 ± 0.79
4,PGSLSLIINIKCTTAKDRTL,2.79 ± 0.13
5,PGYGPLTMGGS,1.35 ± 0.24
6,PGYSSNSCERDLLGRASVWL,-0.593 ± 0.74
7,PHLASPYHHPCNPQFLFPYL,0.016 ± 1.1
8,PHRSPMGANHPERCLVPMLF,-0.134 ± 0.55
9,PIARN,-0.47 ± 1
10,PIGINSVKVSNYINLRYCAC,5.736 ± 0.043
11,PIGRSCIYHKWE,1.98 ± 0.18
12,PILADGLCIFNR,-0.47 ± 0.34
13,PIRLQIWVWPVPKR,0.8 ± 0.55
14,PIRWVGHNKGFQGL,-1.22 ± 0.75
15,PIVLAK,-0.672 ± 0.79
16,PIWFQFGVANTSGLNGVLTS,0.612 ± 0.34
17,PIYCNQRVDRALTMFTQFRA,-0.121 ± 1.1
18,PKLPLAESR,-0.11 ± 0.53
19,PKMRFFPIARSSIRERNVWV,-1.31 ± 0.34
20,PKNMWGSNNLRGMPVSDVKS,0.032 ± 0.34
21,PLCFLVMGHGTRCVCRWNTG,-0.464 ± 0.63
22,PLLGLRG,0.102 ± 1.1
23,PLLRSKKKSALYPA,-0.021 ± 0.63
24,PLNCLPGNCSAQPRFGAASG,0.505 ± 0.39
25,PLVEDLRSIYLVRCSAYLQR,0.593 ± 0.33

row,Substance,amyloid nucleation score
1,PLVLKCRCLI,-1.32 ± 1.1
2,PLWPSNSD,-0.331 ± 0.54
3,PMAPSCLYRIIIMN,1.51 ± 0.26
4,PMISKVCHILKRVEPSWGMR,-0.199 ± 1.1
5,PNALQGSRDVCTLKRLASEA,0.238 ± 0.57
6,PNDAN,0.043 ± 0.28
7,PQHFGEPTLIMVGKGLGCLR,0.178 ± 0.77
8,PQLHSLCT,-0.214 ± 1
9,PRAHTVNV,-0.249 ± 1.1
10,PRCLDLLDIFV,0.072 ± 1.1
11,PREKLYITMNMADIGSSRHP,4.86 ± 0.051
12,PRRECVVRSAVPWYRRSRE,1.71 ± 0.35
13,PSDMHSNNLA,-0.774 ± 0.76
14,PSGNQELLGTMTWIRKVTQS,-0.86 ± 0.34
15,PSIWSLDGSYFCSADENCKR,inactive
16,PSLWFLCRYGVTSIGLVFTL,-0.159 ± 1.1
17,PSNNIFSLLFLVLKHFIDMR,inactive
18,PSSISLTVYKSRMGEYWCKG,inactive
19,PSSSVCNINCYSKRSDRSVV,-0.09 ± 0.63
20,PSVACGERCKPMCKVTLSPC,1.42 ± 0.33
21,PSVTRVLSLVILEAPNA,2.76 ± 0.14
22,PSWCS,0.33 ± 0.17
23,PTGGRLYSV,0.012 ± 1
24,PTIMLTGR,0.208 ± 0.65
25,PTSCSSRN,-0.055 ± 1.1

row,Substance,amyloid nucleation score
1,PVGVDLWCGSQSNSLNAFLH,inactive
2,PVIIAW,0.14 ± 1
3,PVRLPSMWNVDRAFWPDYCQ,inactive
4,PVRSMNPLRRLNESSRFDEE,1.48 ± 0.61
5,PWAMDQVTLSMVLPFMWPRL,0.456 ± 0.39
6,PWDVGRRR,0.97 ± 0.55
7,PWETRSNA,-0.012 ± 0.46
8,PWHVYFDRNGWPYGSQRVQG,0.718 ± 0.57
9,PWNMACFS,inactive
10,PYATNSRRNRNVYLRPHCQI,1.77 ± 0.12
11,PYIWYPISECRGSSSFETYA,0.29 ± 0.74
12,PYNLVGLGLFSPAGF,-0.849 ± 0.61
13,PYSVMTFEIT,0.486 ± 0.33
14,PYTSS,-0.107 ± 0.41
15,PYVMCLNDYPSSKDCFQIVS,-0.619 ± 0.27
16,QARYFFTAARYITVLWKSTF,-0.487 ± 0.56
17,QCFSLGGWVCFVIDVC,9.476 ± 0.079
18,QCLTSRLGSKIVMCKSLDIS,0.009 ± 0.23
19,QCVQRHALRVG,4.31 ± 0.12
20,QDRGHSVL,inactive
21,QDSFRGLGYFWGPQHETVVM,-1.23 ± 0.48
22,QDTFYEWCKNVHVLHTRFGV,0.905 ± 0.47
23,QDYTDHPGIIFSFRGCSRDT,inactive
24,QEQDKSRELKCGGKLYVYEG,1.04 ± 0.68
25,QESWHNYESS,-0.805 ± 0.64

row,Substance,amyloid nucleation score
1,QGEEVGWFRFGRKSGAINMV,0.076 ± 0.36
2,QGMNPLQSLDVKCYYL,inactive
3,QHAFRVHFTVRRVSSFFVR,5.96 ± 0.086
4,QHTKGHSPEWD,1.47 ± 0.28
5,QHVGDSWMSSVNLGVLRVRL,0.055 ± 0.35
6,QHWRLNWNEDFFMYWYGFLT,-0.655 ± 0.41
7,QIFTKRVRTNLPFQFSNYVG,0.479 ± 0.74
8,QIGNVFNRY,-0.283 ± 1
9,QLFTWILVAPKLPCWF,6.36 ± 0.086
10,QLFVMPCMNSFEGRKRNCFS,-0.836 ± 0.48
11,QLIIMCVMGEQTICTVCHTG,7.153 ± 0.042
12,QLPAHFFGLFCLFP,-1.41 ± 0.73
13,QLQFMRADFFLNKVKLRGET,inactive
14,QMFVRCSQ,0.705 ± 0.66
15,QMQPTGLRQNLSSPWPFVGE,0.993 ± 0.29
16,QNGRMSTHTDFGGM,0.39 ± 0.38
17,QRDCSYEYLTTKLTAELRGS,0.216 ± 0.55
18,QSMTTQNLGVWEELCKAFLI,inactive
19,QSNVCKIGSGVDESGNNMTL,0.532 ± 0.37
20,QSPSL,-0.381 ± 0.79
21,QSRSRIGFGQCGRFGTAWWV,0.605 ± 0.45
22,QSRWSFKTYYSREKW,-0.278 ± 0.39
23,QSTHMNT,-0.364 ± 0.48
24,QSVLSLSGLYGHDLREGLL,-0.387 ± 0.49
25,QSVQFRWRLCLAGFVGTGWR,3.06 ± 0.089

row,Substance,amyloid nucleation score
1,QSYVLMC,-0.233 ± 0.48
2,QSYWSWLKKVSRFVYPHTRS,0.291 ± 0.26
3,QTCLHMSIGWVSP,4.38 ± 0.082
4,QTGQGYIVQGTVNSMKGCFR,-0.038 ± 0.65
5,QTNYEAHFDRVINYAFVHLF,-0.392 ± 0.79
6,QTSLSTMMYLPCH,0.7 ± 0.49
7,QTTDNFIVKHALCNVA,-0.622 ± 0.34
8,QTTMKVSFSFLMRGGNPQVM,4.56 ± 0.11
9,QVFFFLITSRVRSVRFSQEF,1.62 ± 0.25
10,QVLFVRFRRYVYQRMWACWG,0.405 ± 0.74
11,QVLLFQWLSGDYQMIKMMRW,-0.207 ± 0.45
12,QVLLGTLHKVY,1.4 ± 0.49
13,QVTSCGSWWSRSIWYEVVFS,-0.622 ± 1.1
14,QVVFQGLFFYVGCSGHICRY,7.67 ± 0.062
15,QWRINSRLFG,-0.266 ± 0.22
16,QWTHERSEPWHCSDVRSFIE,5.757 ± 0.044
17,QWVIKFIHRQIVVPFKFAGI,-0.385 ± 0.8
18,QWVVTRDFVE,-0.041 ± 0.63
19,QYPDSCS,-0.381 ± 0.79
20,QYVDWLLYGLRDCYWYRRVY,0.192 ± 0.3
21,RACFHHIIGDCCYASFN,8.757 ± 0.05
22,RAHVYSSKDP,5.92 ± 0.059
23,RALEIALMLSTTCKSGFRRE,5.56 ± 0.06
24,RALVYVWACSVLLDNCTSRH,-0.935 ± 1.1
25,RANKYVASRFVITFKVACFE,0.092 ± 1.1

row,Substance,amyloid nucleation score
1,RAPFLKMCL,-1.22 ± 0.75
2,RARPC,inactive
3,RATISLVDMEFSLRDPQ,inactive
4,RATKGAPN,0.858 ± 0.28
5,RAVHARYLL,1.86 ± 0.15
6,RAWHPFDGEYNIVFSHIVLK,-0.525 ± 1.1
7,RCCFAARMYYGHTLASAVIR,1.38 ± 0.3
8,RCERWCPWNFHNQAL,0.449 ± 0.51
9,RCFMGVA,0.276 ± 0.65
10,RCGFNLFTS,-0.883 ± 0.76
11,RCLSKVLSLL,-1.72 ± 0.54
12,RCNIWCHFPVCRAINIMLQA,-0.147 ± 1.1
13,RCRFPVVIKQRDLVKEVMV,-0.222 ± 0.46
14,RCRPLCI,-0.299 ± 1
15,RCSDVTDFNKM,0.122 ± 1.1
16,RCSSRPCDLCVTEWIRRMEG,0.357 ± 0.45
17,RDALCVHWVAYIGNKHGWVA,0.965 ± 0.17
18,RDGLVQMDVVLINVRVEVVC,-0.13 ± 0.76
19,RDKPPVSKYTSRTREFMLVR,0.987 ± 0.39
20,RDLDY,-1.27 ± 0.75
21,RDPSTELMISRLARTESCGT,4.94 ± 0.065
22,RDQRLCV,-1.18 ± 1.1
23,RDTVFYILSAWNLSAGSRKA,3.04 ± 0.089
24,RDWRANGSCHESSSGLDM,1.6 ± 0.34
25,REDRNATLCIVV,2.67 ± 0.13
